Reference: article PMC6098094

Assays:
Assay in all cases: two-hybrid; quantitative yeast two-hybrid, para-nitrophenyl-alpha-galactoside assay; interaction strength as percentage of wildtype GAL4BD-UBXD1; three independent experiments with five yeast transformands per condition
Gal4BD-UBXD1ΔPUB = molecular target: Gal4BD-UBXD1ΔPUB
Gal4BD-UBXD1ΔUBX = molecular target: Gal4BD-UBXD1ΔUBX
Gal4BD-UBXD1ΔVIM = molecular target: Gal4BD-UBXD1ΔVIM

- interaction strength as percentage of wildtype GAL4BD-UBXD1 (% of wildtype GAL4BD-UBXD1) (Gal4BD-UBXD1ΔPUB): 13.8
- interaction strength as percentage of wildtype GAL4BD-UBXD1 (% of wildtype GAL4BD-UBXD1) (Gal4BD-UBXD1ΔUBX): 29.2
- interaction strength as percentage of wildtype GAL4BD-UBXD1 (% of wildtype GAL4BD-UBXD1) (Gal4BD-UBXD1ΔVIM): 8.1
Substance: Gal4AD-p97 (from UniProt P55072 1-806) (natural protein)
